Source: PMC3549669 (Science signaling, 2012)
Changes are numbered by the printed parent chain. In names and notes the source's numbering stands.

T1: GST-TBK1 (human, UniProt Q9UHD2 1-729)
T1 sequence (looked up): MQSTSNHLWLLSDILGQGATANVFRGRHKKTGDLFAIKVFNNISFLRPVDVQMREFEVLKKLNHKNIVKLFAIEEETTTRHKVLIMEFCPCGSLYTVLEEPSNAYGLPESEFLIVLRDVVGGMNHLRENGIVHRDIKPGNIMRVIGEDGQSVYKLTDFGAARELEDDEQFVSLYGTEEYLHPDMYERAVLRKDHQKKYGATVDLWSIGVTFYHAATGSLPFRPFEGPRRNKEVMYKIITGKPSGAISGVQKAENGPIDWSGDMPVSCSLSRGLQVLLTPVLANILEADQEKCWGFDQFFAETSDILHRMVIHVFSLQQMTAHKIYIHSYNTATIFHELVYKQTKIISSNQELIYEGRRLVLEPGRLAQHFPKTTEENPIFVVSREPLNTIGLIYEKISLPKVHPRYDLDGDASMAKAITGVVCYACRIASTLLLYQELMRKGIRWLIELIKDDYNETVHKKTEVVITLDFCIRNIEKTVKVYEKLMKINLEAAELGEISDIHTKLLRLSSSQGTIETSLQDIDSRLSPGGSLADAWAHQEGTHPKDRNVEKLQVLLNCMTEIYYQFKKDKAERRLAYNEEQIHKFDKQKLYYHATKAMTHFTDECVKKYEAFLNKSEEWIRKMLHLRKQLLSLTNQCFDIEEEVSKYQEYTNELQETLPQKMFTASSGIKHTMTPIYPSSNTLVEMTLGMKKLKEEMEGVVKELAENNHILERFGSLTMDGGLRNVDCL

T2: Flag-TBK1 (human, UniProt Q9UHD2 1-729)
T2 sequence (looked up): T1 sequence (looked up)

B1: His6-STING (341–379) (domain or fragment, human, UniProt Q86WV6 341-379, looked up)
chain: VTVGSLKTSAVPSTSTMSQEPELLISGMEKPLPLRTDFS
B2: GST-STING (341–379) (domain or fragment, human, UniProt Q86WV6 341-379, looked up)
chain: B1 chain
B3: GST-STING (341–379) L374A (domain or fragment, human, UniProt Q86WV6 341-379, looked up)
chain: B1 chain with L34A
B4: GST-STING (341–379) S358A (domain or fragment, human, UniProt Q86WV6 341-379, looked up)
chain: B1 chain with S18A
B5: His6-STING (341–379) S366A (domain or fragment, human, UniProt Q86WV6 341-379, looked up)
chain: B1 chain with S26A
B6: GST-STING (341–379) S366A (domain or fragment, human, UniProt Q86WV6 341-379, looked up)
chain: B1 chain with S26A
B7: His6-STING (341–379) L374A (domain or fragment, human, UniProt Q86WV6 341-379, looked up)
chain: B1 chain with L34A

What was measured:
SEC = target: the molecule itself; assay: SEC
GST-TBK1 = target: T1, GST-TBK1; assay: pull-down
Flag-TBK1 = target: T2, Flag-TBK1; assay: pull-down

Binder | binding result (SEC) | binding result (GST-TBK1) | binding result (Flag-TBK1)
B1 | binds | binds | 
B2 |  |  | binds
B3 |  |  | binds
B4 |  |  | binds
B5 | binds |  | 
B6 |  |  | binds
B7 | binds |  | 
